Results as given in article PMC2746994 (Biochemistry, 2009).

Legend:
[1] = biological target: Survivin-GB1Borealin f.l. complex (human, UniProt O15392;Q53HL2); assay: ITC
Survivin, non-tagged = Survivin, non-tagged (human, UniProt O15392 1-142); assay: SEC
Sequence of Survivin, non-tagged (O15392 whole entry): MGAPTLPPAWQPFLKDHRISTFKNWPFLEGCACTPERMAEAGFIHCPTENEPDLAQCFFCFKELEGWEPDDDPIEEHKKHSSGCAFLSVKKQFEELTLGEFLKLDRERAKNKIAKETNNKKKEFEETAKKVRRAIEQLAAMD

Sequence of Survivin-GB1Borealin f.l. complex (O15392 whole entry, chain 1 of 2): as the sequence (O15392 whole entry) above
Sequence of Survivin-GB1Borealin f.l. complex (Q53HL2 whole entry, chain 2 of 2): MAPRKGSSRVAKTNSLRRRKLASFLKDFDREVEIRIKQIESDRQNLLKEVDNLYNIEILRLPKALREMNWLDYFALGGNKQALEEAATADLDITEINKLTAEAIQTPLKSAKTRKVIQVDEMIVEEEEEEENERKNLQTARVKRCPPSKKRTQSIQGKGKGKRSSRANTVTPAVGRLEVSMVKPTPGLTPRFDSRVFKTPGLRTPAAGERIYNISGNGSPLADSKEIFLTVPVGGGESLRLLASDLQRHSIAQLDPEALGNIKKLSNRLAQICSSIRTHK

B1: INCENP 1-69, His6-tagged (domain or fragment)
chain: MGTTAPGPIHLLELCDQKLMEFLCNMDNKDLVWLEEIQEEAERMFTREFSKEPELMPKTPSQKNRRKKR
Kd [1]: 27 nM
stoichiometry N [1]: ~0.75

B2: GB1Borealin 13-92 (domain or fragment)
chain: TNSLRRRKLASFLKDFDREVEIRIKQIESDRQNLLKEVDNLYNIEILRLPKALREMNWLDYFALGGNKQALEEAATADLD
binding result (Survivin, non-tagged): binds
